Common to all, as to test: two-hybrid; quantitative YTH (Q-YTH): chlorophenol-red-β-D-galactopyranoside colour change at 540 nm, background (bait + empty pACT2) subtracted, normalised to wild-type RocCOR = 100%
Experiment [1] has as its target LRRK2 RocCOR tandem domain R1441C (LexA-BD bait) (human) (UniProt Q5S007).
Experiment [2] deals with LRRK2 RocCOR tandem domain R1441G (LexA-BD bait) (human) (UniProt Q5S007).
In experiment [3] the target is LRRK2 RocCOR tandem domain R1441H (LexA-BD bait) (human) (UniProt Q5S007).
Chain of LRRK2 RocCOR tandem domain R1441H (LexA-BD bait) (human) (Q5S007 whole entry R1441H, the tested form may be a part): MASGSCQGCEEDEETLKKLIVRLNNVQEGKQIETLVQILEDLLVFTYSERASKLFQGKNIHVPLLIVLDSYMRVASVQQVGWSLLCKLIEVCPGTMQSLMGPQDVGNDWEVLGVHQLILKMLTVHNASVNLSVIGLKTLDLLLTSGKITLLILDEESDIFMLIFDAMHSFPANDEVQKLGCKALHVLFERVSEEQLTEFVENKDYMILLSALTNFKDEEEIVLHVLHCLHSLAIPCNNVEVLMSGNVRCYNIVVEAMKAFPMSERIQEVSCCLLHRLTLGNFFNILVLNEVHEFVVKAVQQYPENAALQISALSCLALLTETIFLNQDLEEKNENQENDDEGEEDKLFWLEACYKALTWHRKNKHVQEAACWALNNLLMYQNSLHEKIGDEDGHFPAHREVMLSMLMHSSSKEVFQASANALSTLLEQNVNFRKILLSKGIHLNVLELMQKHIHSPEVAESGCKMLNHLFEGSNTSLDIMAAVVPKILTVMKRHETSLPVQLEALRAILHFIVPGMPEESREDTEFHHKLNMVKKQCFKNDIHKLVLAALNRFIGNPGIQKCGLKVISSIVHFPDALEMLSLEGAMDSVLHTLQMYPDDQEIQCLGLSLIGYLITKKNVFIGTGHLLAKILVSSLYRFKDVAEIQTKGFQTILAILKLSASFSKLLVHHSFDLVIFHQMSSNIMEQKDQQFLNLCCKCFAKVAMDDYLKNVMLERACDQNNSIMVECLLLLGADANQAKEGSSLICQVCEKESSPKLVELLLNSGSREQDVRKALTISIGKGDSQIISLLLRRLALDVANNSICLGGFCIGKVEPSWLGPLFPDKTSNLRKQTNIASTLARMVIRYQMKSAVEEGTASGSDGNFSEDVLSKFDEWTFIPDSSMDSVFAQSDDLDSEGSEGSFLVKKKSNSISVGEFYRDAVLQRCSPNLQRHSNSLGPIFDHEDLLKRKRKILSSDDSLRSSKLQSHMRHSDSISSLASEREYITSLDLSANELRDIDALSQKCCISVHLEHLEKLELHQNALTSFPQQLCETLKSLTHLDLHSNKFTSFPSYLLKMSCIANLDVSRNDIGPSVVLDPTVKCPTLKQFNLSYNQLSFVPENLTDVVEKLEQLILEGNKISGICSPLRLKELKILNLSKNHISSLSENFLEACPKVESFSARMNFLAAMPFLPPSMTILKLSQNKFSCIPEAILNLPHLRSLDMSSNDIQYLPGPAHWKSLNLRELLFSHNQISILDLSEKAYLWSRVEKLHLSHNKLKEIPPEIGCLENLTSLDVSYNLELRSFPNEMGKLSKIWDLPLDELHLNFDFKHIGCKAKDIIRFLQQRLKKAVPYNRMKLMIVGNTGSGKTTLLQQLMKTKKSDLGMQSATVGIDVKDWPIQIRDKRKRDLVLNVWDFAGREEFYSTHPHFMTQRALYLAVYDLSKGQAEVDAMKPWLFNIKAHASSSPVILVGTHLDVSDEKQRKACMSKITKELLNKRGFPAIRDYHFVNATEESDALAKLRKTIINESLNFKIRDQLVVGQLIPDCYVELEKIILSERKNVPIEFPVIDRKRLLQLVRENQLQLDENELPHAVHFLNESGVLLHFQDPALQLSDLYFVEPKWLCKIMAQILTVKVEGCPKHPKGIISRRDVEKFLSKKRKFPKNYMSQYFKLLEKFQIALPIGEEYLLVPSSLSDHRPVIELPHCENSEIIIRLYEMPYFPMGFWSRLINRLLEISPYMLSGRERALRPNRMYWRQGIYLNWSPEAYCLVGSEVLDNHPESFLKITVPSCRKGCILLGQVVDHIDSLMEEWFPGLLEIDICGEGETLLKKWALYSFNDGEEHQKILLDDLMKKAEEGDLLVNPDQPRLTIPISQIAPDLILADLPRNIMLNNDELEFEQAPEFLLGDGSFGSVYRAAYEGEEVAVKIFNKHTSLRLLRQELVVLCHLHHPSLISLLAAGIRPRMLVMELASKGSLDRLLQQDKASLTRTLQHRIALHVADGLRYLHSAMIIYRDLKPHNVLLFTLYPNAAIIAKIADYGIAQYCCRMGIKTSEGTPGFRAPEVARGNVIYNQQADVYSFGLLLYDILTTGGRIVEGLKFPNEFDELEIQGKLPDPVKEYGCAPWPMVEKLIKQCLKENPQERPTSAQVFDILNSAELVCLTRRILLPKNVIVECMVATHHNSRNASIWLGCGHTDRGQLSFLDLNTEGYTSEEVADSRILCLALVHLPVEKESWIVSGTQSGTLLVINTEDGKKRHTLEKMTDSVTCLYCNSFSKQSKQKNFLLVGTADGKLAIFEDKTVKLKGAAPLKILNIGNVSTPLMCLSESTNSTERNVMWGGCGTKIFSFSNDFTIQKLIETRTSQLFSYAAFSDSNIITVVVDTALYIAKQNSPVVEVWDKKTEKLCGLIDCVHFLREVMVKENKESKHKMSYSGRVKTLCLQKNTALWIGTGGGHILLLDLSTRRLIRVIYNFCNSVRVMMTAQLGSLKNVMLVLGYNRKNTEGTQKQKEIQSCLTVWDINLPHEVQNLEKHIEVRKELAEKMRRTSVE

Chain of TUBB C terminus (Phe-317 to the stop codon), GAL4-AD prey (P07437 317-444): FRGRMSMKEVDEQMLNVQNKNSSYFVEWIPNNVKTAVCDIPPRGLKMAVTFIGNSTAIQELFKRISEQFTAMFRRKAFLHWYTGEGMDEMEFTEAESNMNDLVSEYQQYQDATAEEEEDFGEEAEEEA
Chain of TUBB4 C terminus (Phe-317 to Ala-444), GAL4-AD prey (P04350 317-444): as the sequence (P07437 317-444) above, with N16S, N19S, V49A, E117G, D119F, F120E, G121E, E123A, A124E, E127V counted along it
Chain of LRRK2 RocCOR tandem domain R1441G (LexA-BD bait) (human) (Q5S007 whole entry R1441G, the tested form may be a part): as the sequence (Q5S007 whole entry R1441H, the tested form may be a part) above, with H1441G counted along it
Chain of LRRK2 RocCOR tandem domain R1441C (LexA-BD bait) (human) (Q5S007 whole entry R1441C, the tested form may be a part): as the sequence (Q5S007 whole entry R1441H, the tested form may be a part) above, with H1441C counted along it

For “TUBB C terminus (Phe-317 to the stop codon), GAL4-AD prey (from UniProt P07437 317-444) (domain or fragment)”, the percent increase of the interaction against wild-type RocCOR (Q-YTH) in experiment [1] came out at 25%. Besides, the percent reduction of the interaction against wild-type RocCOR (Q-YTH) in experiment [2] was 50%; in experiment [3], 25%.

“TUBB4 C terminus (Phe-317 to Ala-444), GAL4-AD prey (from UniProt P04350 317-444) (domain or fragment)”: the percent increase of the interaction against wild-type RocCOR (Q-YTH) in experiment [1] is 25%. The percent reduction of the interaction against wild-type RocCOR (Q-YTH) was determined as 50% in experiment [2] and 25% in experiment [3].
